Test results as given in PMC12695944, “Geminin inhibits DNA replication licensing by sterically blocking CDT1-MCM2 interactions” (Nature Communications, 2025).

Tests used:
[1] = biological target: T1, CDT1^ΔN (N-terminally truncated CDT1^158-546) (human, UniProt Q9H211 158-546); experiment: SPR
T1 chain: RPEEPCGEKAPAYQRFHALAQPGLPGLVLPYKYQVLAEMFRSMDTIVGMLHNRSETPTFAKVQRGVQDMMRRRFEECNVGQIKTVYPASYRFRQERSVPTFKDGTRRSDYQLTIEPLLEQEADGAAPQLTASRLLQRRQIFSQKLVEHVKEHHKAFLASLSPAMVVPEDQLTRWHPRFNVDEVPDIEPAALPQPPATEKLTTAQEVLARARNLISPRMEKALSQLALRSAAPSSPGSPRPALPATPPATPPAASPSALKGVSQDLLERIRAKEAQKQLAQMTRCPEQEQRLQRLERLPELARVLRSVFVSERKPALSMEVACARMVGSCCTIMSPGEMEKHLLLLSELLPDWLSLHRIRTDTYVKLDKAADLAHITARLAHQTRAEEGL

[2] = biological target: T2, CDT1^ΔN (N-terminally truncated CDT1^158-546) (human, UniProt Q9H211 158-546); experiment: SPR; single-cycle; CDT1^ΔN covalently immobilised on a CM5 chip (EDC/NHS); Gem^FL dimer injected, 7 injections, three-fold steps up to 750 nM; 25 °C; 10 mM HEPES, 500 mM NaCl, 50 µM EDTA, 1 mM TCEP-HCl, 0.05% Tween-20, pH 8.0; 1:1 kinetic model of analyte dimer:CDT1; settings: both partners purified
T2 construct: CDT1, human, UniProt Q9H211, residues 158-546 (lacks the unstructured N-terminus); Plasmid is in Supplementary Data 1; The His tag serves for capture on the NTA chip in the SPR with peptides; also called standard CDT1 construct; source: E. coli BL21 (DE3), purified (HisTrap Excel, POROS HS, Superdex 200); not shown: His6, N-terminal, kept
T2 sequence (looked up): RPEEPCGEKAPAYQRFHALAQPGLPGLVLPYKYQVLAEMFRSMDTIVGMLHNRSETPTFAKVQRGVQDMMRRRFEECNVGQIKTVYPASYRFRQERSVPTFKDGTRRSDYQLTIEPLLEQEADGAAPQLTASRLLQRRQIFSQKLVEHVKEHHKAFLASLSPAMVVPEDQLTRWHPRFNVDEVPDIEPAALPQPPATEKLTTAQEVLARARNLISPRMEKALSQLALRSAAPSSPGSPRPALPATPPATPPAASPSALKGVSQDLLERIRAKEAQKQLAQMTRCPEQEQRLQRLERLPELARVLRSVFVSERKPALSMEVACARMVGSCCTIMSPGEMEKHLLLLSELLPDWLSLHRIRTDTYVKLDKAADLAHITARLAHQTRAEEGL

[3] = biological target: T3, full-length CDT1 (CDT1^FL), untagged, co-expressed with geminin (CG complex) (human, UniProt Q9H211 1-546); experiment: SEC-MALS; co-expressed and co-purified CDT1^FL-geminin (CG) complex at >25× higher concentration than in the pre-RC assay; settings: both partners purified
T3 construct: CDT1, human, UniProt Q9H211, residues 1-546; A separate GST-cleaved CDT1^FL was used only in pre-RC assays; also called CDT1 of the CG complex; source: E. coli BL21 (DE3), co-expressed with His-geminin, co-purified as described for geminin
T3 sequence (looked up): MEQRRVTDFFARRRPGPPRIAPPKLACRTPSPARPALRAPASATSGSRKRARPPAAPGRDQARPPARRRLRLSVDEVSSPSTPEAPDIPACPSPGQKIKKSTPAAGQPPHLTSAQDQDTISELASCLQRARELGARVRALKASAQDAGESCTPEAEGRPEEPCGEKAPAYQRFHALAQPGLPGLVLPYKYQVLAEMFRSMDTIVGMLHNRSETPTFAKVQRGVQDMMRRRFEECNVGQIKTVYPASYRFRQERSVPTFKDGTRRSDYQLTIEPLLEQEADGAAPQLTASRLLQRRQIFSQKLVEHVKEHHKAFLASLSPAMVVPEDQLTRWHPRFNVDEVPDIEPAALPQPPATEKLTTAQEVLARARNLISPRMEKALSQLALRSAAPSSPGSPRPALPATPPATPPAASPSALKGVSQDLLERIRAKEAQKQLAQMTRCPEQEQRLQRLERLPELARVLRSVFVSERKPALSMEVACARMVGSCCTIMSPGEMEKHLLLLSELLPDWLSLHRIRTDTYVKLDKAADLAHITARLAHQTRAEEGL

[4] = biological target: T4, CDT1 middle helical domain (CDT1^MHD, residues 158–396) (human, UniProt Q9H211 158-396); experiment: mass photometry; room temperature; proteins incubated at CDT1:geminin monomer ratios 0:1, 1:0, 1:2, 1:3, 2:4, 1:4 (1 part = 150 nM) in pre-RC buffer minus Triton X-100, diluted 1:10 in PBS on the instrument; MHD, CHD at 1:2; settings: both partners purified
T4 construct: CDT1, human, UniProt Q9H211, residues 158-396; also called CDT1^158-396; source: E. coli, purified as CDT1^ΔN with the POROS HS step omitted
T4 sequence (looked up): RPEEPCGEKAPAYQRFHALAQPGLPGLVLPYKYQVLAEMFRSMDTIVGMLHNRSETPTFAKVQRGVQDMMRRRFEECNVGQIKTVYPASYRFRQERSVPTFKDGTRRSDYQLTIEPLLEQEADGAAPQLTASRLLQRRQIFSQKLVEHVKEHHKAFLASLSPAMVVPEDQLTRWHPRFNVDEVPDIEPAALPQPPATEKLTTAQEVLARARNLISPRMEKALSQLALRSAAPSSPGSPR

[5] = biological target: T5, CDT1^4A (CDT1^ΔN with residues 327–330 mutated to alanines) (human, UniProt Q9H211 158-546, residues 327–330 mutated to alanines (CDT1^4A)); experiment: as above; settings: both partners purified
T5 construct: CDT1, human, UniProt Q9H211, residues 158-546 with residues 327-330 all alanine; R330 is; source: E. coli, purified as for the MHD and CHD
T5 sequence (looked up): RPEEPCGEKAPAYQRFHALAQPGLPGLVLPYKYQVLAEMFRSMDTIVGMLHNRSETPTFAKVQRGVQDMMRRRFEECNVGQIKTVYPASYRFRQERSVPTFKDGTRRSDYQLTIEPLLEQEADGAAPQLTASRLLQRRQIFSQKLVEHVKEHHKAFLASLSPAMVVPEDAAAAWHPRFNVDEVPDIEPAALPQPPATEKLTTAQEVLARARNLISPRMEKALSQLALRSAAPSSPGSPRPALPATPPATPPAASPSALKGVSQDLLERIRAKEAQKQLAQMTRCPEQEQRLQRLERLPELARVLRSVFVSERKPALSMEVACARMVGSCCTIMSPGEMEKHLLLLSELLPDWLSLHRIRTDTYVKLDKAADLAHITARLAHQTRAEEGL

[6] = biological target: T6, CDT1^R330A (on a CDT1^ΔN background) (human, UniProt Q9H211 158-546, R330A); experiment: as above; settings: both partners purified
T6 construct: CDT1, human, UniProt Q9H211, residues 158-546 with R330A; source: E. coli, purified as for the MHD and CHD
T6 sequence (looked up): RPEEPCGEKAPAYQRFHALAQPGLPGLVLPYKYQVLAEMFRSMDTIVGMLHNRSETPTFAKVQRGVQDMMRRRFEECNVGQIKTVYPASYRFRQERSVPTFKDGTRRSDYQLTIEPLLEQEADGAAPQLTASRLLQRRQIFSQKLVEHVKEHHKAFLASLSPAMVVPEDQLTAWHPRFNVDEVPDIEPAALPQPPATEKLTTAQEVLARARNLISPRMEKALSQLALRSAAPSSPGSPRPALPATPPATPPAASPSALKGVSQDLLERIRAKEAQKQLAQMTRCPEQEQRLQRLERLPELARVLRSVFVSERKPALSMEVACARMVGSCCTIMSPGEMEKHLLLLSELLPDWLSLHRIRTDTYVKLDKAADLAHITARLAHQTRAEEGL

[7] = biological target: the molecule itself; experiment: as above
[8] = biological target: T2, CDT1^ΔN (N-terminally truncated …); experiment: as above; settings: both partners purified

B1: full-length geminin (Gem^FL) (natural protein, human, UniProt O75496 1-209, looked up)
chain: MNPSMKQKQEEIKENIKNSSVPRRTLKMIQPSASGSLVGRENELSAGLSKRKHRNDHLTSTTSSPGVIVPESSENKNLGGVTQESFDLMIKENPSSQYWKEVAEKRRKALYEALKENEKLHKEIEQKDNEIARLKKENKELAEVAEHVQYMAELIERLNGEPLDNFESLDNQEFDSEEETVEDSLVEDSEIGTCAEGTVSSSTDAKPCI
notes: geminin, human, UniProt O75496, full length; Dimer in solution; In the co-purification of the CG complex the His tag is still on geminin at the HisTrap step and is cleaved afterwards; Plasmid is in Supplementary Data 1; also called WT geminin; source: E. coli BL21 (DE3), purified (HisTrap Excel, POROS HQ, Superdex 200); also co-expressed with untagged CDT1 in E. coli BL21 (DE3) and purified in …
[1]
  koff: 0.0019 s⁻¹
[2]
  Kd: 12 nM
[3]
  stoichiometry N: 2 geminin monomers per CDT1
[4]
  stoichiometry N: 2 geminin monomers per CDT1^MHD
[5]
  stoichiometry N: 2 geminin monomers per CDT1
[6]
  stoichiometry N: 2 geminin monomers per CDT1
[7]
  stoichiometry N: 1.91 ± 0.09
[8]
  stoichiometry N: 2 geminin monomers per CDT1
